This note sets out measurements from article PMC12135187, “A role for pH dynamics regulating transcription factor DNA-binding selectivity”.

Numbering of substitutions follows the chain as printed.

What all share (conditions): protein: recombinant; tags: N-terminal GST (pGEX-6P-2); label: 6-FAM; blunt
For data set [1], the target named is T1, FOXM1 DBD H287K (UniProt Q08050 222-360, H287K).
T1 sequence: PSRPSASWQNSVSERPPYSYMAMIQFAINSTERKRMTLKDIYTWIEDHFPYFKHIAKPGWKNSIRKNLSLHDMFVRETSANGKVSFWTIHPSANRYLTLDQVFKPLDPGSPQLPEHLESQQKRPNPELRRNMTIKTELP
Kind of data set: fluorescence anisotropy; pH 7.0; 20 mM HEPES, 140 mM KCl, 0.05 mM TCEP-HCl, pH 7.0 or 7.5 (pH titration 6.8-8.2), room temperature 30 min, 7.5 nM FAM-DNA. On the technique in general: In fluorescence polarisation assays a small probe gives low polarisation when free and higher when bound to something large.

Data set [2] deals with T2, FOXC2 DBD H122N (UniProt Q99958 72-172, H122N).
T2 sequence: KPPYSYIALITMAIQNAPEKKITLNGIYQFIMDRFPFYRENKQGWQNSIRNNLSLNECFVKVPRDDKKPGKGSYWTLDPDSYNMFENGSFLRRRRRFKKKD
Described as above.

Data set [3] concerns the target T3, FOXC2 DBD H122K (UniProt Q99958 72-172, H122K).
T3 sequence: T2 sequence with N51K
Described as above.

Data set [4] deals with T1, FOXM1 DBD H287K. Kind of data set: fluorescence anisotropy; pH 7.5; 20 mM HEPES, 140 mM KCl, 0.05 mM TCEP-HCl, pH 7.0 or 7.5 (pH titration 6.8-8.2), room temperature 30 min, 7.5 nM FAM-DNA.
Data set [5] deals with T2, FOXC2 DBD H122N. Kind of data set: fluorescence anisotropy; pH 7.5; similar to WT at pH 7.5; 20 mM HEPES, 140 mM KCl, 0.05 mM TCEP-HCl, pH 7.0 or 7.5 (pH titration 6.8-8.2), room temperature 30 min, 7.5 nM FAM-DNA.
For the next data set, the target named is T4, FOXM1 DBD WT (UniProt Q08050 222-360).
T4 sequence: T1 sequence with K66H
Kind of data set: fluorescence anisotropy; pH 7.0; higher affinity than at pH 7.5; 20 mM HEPES, 140 mM KCl, 0.05 mM TCEP-HCl, pH 7.0 or 7.5 (pH titration 6.8-8.2), room temperature 30 min, 7.5 nM FAM-DNA.

The next data set deals with T5, FOXN1 DBD WT (UniProt O15353 270-366).
T5 sequence: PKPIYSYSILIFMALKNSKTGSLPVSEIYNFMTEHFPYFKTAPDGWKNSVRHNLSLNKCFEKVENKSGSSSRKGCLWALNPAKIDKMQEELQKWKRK
The data set is described as above.

In another data set the target is T6, FOXC2 DBD WT (UniProt Q99958 72-172).
T6 sequence: T2 sequence with N51H
The data set is described as above.

Data set [6] concerns the target T3, FOXC2 DBD H122K. Kind of data set: fluorescence anisotropy; pH 7.5; 20 mM HEPES, 140 mM KCl, 0.05 mM TCEP-HCl, pH 7.0 or 7.5 (pH titration 6.8-8.2), room temperature 30 min, 7.5 nM FAM-DNA.

B1: FkhP (dsDNA)
DNA 1: CCATAAACAAC
DNA 2: GTTGTTTATGG
On to B1, for which the Ka with FOXM1 DBD H287K [1] was 4.1 ± 0.81 μM (as printed; KA = 1/KD, so presumably μM^-1); with FOXC2 DBD H122N [2] it was 0.14 ± 0.03 μM (as printed; KA = 1/KD, so presumably μM^-1); with FOXC2 DBD H122K [3] it was 0.86 ± 0.15 μM (as printed; KA = 1/KD, so presumably μM^-1); with FOXM1 DBD H287K [4] it was 1.8 ± 0.27 μM (as printed; KA = 1/KD, so presumably μM^-1); with FOXC2 DBD H122N [5] it was 0.1 ± 0.01 μM (as printed; KA = 1/KD, so presumably μM^-1); in the data set with FOXC2 DBD H122K [6], 0.91 ± 0.08 μM (as printed; KA = 1/KD, so presumably μM^-1). Moreover, the binding result with FOXM1 DBD WT, with FOXN1 DBD WT and in the data set with FOXC2 DBD WT was “binds” throughout.
